{"source": "patent US20240245795A1", "about": "“PREPARATION METHOD AND APPLICATION OF ANTIBODY DRUG CONJUGATE” (priority 2021, published 2024)", "test_system": "Human lung squamous carcinoma cells NCI-H2170", "test": "In vivo anti-tumor experiment (5), NCI-H2170 xenograft", "parameters": "species or system female nude mice", "conditions": "5 mg/kg i.v. single dose", "procedure": "Human lung squamous carcinoma cells NCI-H2170 (ATCC) were suspended in physiological saline. 4×10^7 cells were subcutaneously transplanted into the right flank of female nude mice, which were randomized into groups on day 6. Taking the grouping day as day 0, Antibody Conjugate 13, DS-1062a (the positive control drug) and the hIgG-A-11 conjugate as a negative control group were administered intravenously to the tail at a dose of 5 mg/kg respectively on day 0.", "data": [{"molecule": "DS-1062a (conjugate, chains of the INN, looked up, deruxtecan payload) VH: QVQLVQSGAEVKKPGASVKVSCKASGYTFTTAGMQWVRQAPGQGLEWMGWINTHSGVPKYAEDFKGRVTISADTSTSTAYLQLSSLKSEDTAVYYCARSGFGSSYWYFDVWGQGTLVTVSS VL: DIQMTQSPSSLSASVGDRVTITCKASQDVSTAVAWYQQKPGKAPKLLIYSASYRYTGVPSRFSGSGSGTDFTLTISSLQPEDFAVYYCQQHYITPLTFGQGTKLEIK", "values": [{"measurement": "anti-tumor activity", "value": "showed anti-tumor activity"}]}]}
